Reference: PMC10341807, “Lung Surfactant Protein B Peptide Mimics Interact with the Human ACE2 Receptor” (International Journal of Molecular Sciences, 2023)
pKd: −log10 of the molar value. Bridges are numbered along the chain shown (N, C = ends). Where no end group is shown, it is not given here.

Experiments:
[1] = molecular target: T1, recombinant human ACE2 receptor construct (Homo sapiens, UniProt Q9BYF1); assay: Surface plasmon resonance (SPR) binding of peptides to immobilised rhACE2; settings: pH 7.4, read-out: ka
T1 construct: included residues Glutamine 18 to Serine 740 of the full-length protein; 10xHis (C); purchased R&D Systems
Description: The binding of the solute to the sensor surface ligand results in an evanescent sensor response and is measured in response units (RU) that are proportional to the bound mass.
Expressed viral spike and human ACE2 receptor protein constructs were supplied by R&D Systems (https://www.bio-techne.com accessed on 25 May 2023). The recombinant human ACE2 receptor construct included residues Glutamine 18 to Serine 740 of the full-length protein with a C-terminal 10 Histidine tag.
The organic-solvated peptides were then diluted into 1–2000 dilutions in the HBS–EP buffer for injection. Binding measurements were then made by flowing a running buffer solution of the test sample in the HBS–EP buffer over the chip-associated ACE2 at a flow rate of 30 µL/min for 5 min to determine the binding affinity at 37 °C. […] The binding associated with control medium containing no peptide was subtracted from final affinity traces. The mean “on” and “off” rate constants (kon and koff) and the dissociation equilibrium constant (KD = koff/kon) were calculated using Biacore Insight Evaluation Software version 5, based on curve-fitting measurements.

[2] = molecular target: recombinant human ACE2 receptor construct (angiotensin-converting enzyme 2) (human) (UniProt Q9BYF1); assay: SPR; Biacore T100; ACE2 immobilised on the sensor chip, peptide (from 1 mg/mL in DMSO, diluted in HBS-EP buffer, 0.5 µg/mL) flowed at 30 µL/min for 5 min; 37 °C; HBS-EP: 10 mM Hepes pH 7.4, 150 mM NaCl, 3 mM EDTA, 0.005% surfactant P20
Chain of recombinant human ACE2 receptor construct (angiotensin-converting enzyme 2) (human) (Q9BYF1 18-740): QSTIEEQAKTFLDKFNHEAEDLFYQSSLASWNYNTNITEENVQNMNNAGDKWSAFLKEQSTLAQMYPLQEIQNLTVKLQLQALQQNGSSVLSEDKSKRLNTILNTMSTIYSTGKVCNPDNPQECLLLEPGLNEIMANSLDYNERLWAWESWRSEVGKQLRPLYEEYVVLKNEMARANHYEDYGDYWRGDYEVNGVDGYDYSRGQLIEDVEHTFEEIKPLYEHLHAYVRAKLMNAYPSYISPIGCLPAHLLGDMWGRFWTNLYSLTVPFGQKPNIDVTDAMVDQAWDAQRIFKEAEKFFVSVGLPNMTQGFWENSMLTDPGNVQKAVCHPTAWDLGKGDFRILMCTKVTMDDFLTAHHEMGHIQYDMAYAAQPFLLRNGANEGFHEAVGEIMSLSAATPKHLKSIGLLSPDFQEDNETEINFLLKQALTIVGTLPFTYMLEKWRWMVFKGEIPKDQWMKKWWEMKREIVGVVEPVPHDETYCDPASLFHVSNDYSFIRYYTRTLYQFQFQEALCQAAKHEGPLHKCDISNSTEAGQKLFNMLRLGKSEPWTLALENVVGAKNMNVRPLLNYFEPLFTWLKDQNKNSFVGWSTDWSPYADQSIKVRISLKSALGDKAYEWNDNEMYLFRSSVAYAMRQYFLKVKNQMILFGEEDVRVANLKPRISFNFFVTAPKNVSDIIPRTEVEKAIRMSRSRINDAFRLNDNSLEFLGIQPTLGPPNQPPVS

T1 sequence (Q9BYF1 18-740): as above

Substance | kon [1] | Ka [2] | pKd [2] | Kobs (at 1.05 × 10^−7 analyte) [2] | koff [2] | kon [2]
FPIPLPYYWLYRALIKRIQALIPKGGRLLPQLVYRLVLRYS [B-YL] | 21900 M⁻¹ s⁻¹ |  |  |  |  | 
FPIPLPYCWLCRALIKRIQAMIPKGGRMLPQLVCRLVLRCS (disulfide 8-40, 11-34) [SMB] | 6200 M⁻¹ s⁻¹ |  |  |  |  | 
Super Mini-B (SMB), synthetic lung surfactant protein B peptide mimic |  | 1.01e+08 M⁻¹ | 8.01 | 0.000712 s⁻¹ | 6.12e-05 s⁻¹ | 6200 M⁻¹ s⁻¹
